“Also recorded” adds a separate entry of the source.
System: HEK293T/16 cells
Test: Secreted alkaline phosphatase (SEAP)-based surrogate killing assay of iCasp9 mutants
Type: cell-based, human
Details: SEAP assay without AP1903
Experimental: Early passage HEK293T/16 cells (ATCC, Manassas, Va.) were maintained in IMDM, GlutaMAX™ (Life Technologies, Carlsbad, Calif.) supplemented with 10% FBS, 100 U/mL penicillin, and 100 […] until transfection in a humidified, 37° C., 5% CO2/95% air atmosphere. Cells in logarithmic-phase growth were transiently transfected with 800 ng to 2 μg of expression plasmid encoding iCasp9 mutants and 500 ng of an expression plasmid encoding SRα promoter driven SEAP per million cells in 15-mL conical tubes. […] GeneJammer® Transfection Reagent at a ratio of 3 μl per ug of plasmid DNA was used to transiently transfect HEK293T/16 cells in the absence of antibiotics. 100 μl or 2 mL of the transfection mixture was added to each well in 96-well or 6-well plate, respectively.
Briefly, after 65° C. heat denaturation for 45 minutes to reduce background caused by endogenous (and serum-derived) alkaline phosphatases that are sensitive to heat, 5 μl of supernatants was added to 95 μl of PBS and added to 100 μl of substrate buffer, containing 1 μl of 100 mM 4-methylumbelliferyl phosphate (4-MUP; Sigma, St. Louis, Mo.) re-suspended in 2 M diethanolamine. Hydrolysis of 4-MUP by SEAP produces a fluorescent […] with excitation/emission (355/460 nm), which can be easily measured. Assays were performed in black opaque 96-well plates to minimize fluorescence leakage between wells. […] of the mixture was seeded onto each well of a 96-well plate. […] For the assay, 4-methylumbelliferyl phosphate substrate was hydrolyzed by SEAP to 4-methylumbelliferon, a metabolite that can be excited with 364 nm and detected with an emission filter of 448 nm. Since SEAP is used as a marker for cell viability, reduced SEAP reading corresponds with increased iCaspase-9 activities.

B1: D327G: modified iCasp9, D327G (protein)
chain: VDGFGDVGALESLRGNADLAYILSMEPCGHCLIINNVNFCRESGLRTRTGSNIDCEKLRRRFSSLHFMVEVKGDLTAKKMVLALLELARQDHGALDCCVVVILSHGCQASHLQFPGAVYGTDGCPVSVEKIVNIFNGTSCPSLGGKPKLFFIQACGGEQKDHGFEVASTSPEDESPGSNPEPDATPFQEGLRTFGQLDAISSLPTPSDIFVSYSTFPGFVSWRDPKSGSWYVETLDDIFEQWAHSEDLQSLLLRVANAVSVKGIYKQMPGCFNFLRKKLFFKTSASRA
- Basal Activity (relative to wild type/unmodified Caspase-9): did not lower basal activity; also recorded: Increased

B2: Q328K: modified iCasp9, Q328K (protein)
chain: VDGFGDVGALESLRGNADLAYILSMEPCGHCLIINNVNFCRESGLRTRTGSNIDCEKLRRRFSSLHFMVEVKGDLTAKKMVLALLELARQDHGALDCCVVVILSHGCQASHLQFPGAVYGTDGCPVSVEKIVNIFNGTSCPSLGGKPKLFFIQACGGEQKDHGFEVASTSPEDESPGSNPEPDATPFQEGLRTFDKLDAISSLPTPSDIFVSYSTFPGFVSWRDPKSGSWYVETLDDIFEQWAHSEDLQSLLLRVANAVSVKGIYKQMPGCFNFLRKKLFFKTSASRA
- Basal Activity (relative to wild type/unmodified Caspase-9): did not lower basal activity; also recorded: Increased

B3: D327R: modified iCasp9, D327R (protein)
chain: VDGFGDVGALESLRGNADLAYILSMEPCGHCLIINNVNFCRESGLRTRTGSNIDCEKLRRRFSSLHFMVEVKGDLTAKKMVLALLELARQDHGALDCCVVVILSHGCQASHLQFPGAVYGTDGCPVSVEKIVNIFNGTSCPSLGGKPKLFFIQACGGEQKDHGFEVASTSPEDESPGSNPEPDATPFQEGLRTFRQLDAISSLPTPSDIFVSYSTFPGFVSWRDPKSGSWYVETLDDIFEQWAHSEDLQSLLLRVANAVSVKGIYKQMPGCFNFLRKKLFFKTSASRA
- Basal Activity (relative to wild type/unmodified Caspase-9): did not lower basal activity; also recorded: Increased

B4: D327K: modified iCasp9, D327K (protein)
chain: VDGFGDVGALESLRGNADLAYILSMEPCGHCLIINNVNFCRESGLRTRTGSNIDCEKLRRRFSSLHFMVEVKGDLTAKKMVLALLELARQDHGALDCCVVVILSHGCQASHLQFPGAVYGTDGCPVSVEKIVNIFNGTSCPSLGGKPKLFFIQACGGEQKDHGFEVASTSPEDESPGSNPEPDATPFQEGLRTFKQLDAISSLPTPSDIFVSYSTFPGFVSWRDPKSGSWYVETLDDIFEQWAHSEDLQSLLLRVANAVSVKGIYKQMPGCFNFLRKKLFFKTSASRA
- Basal Activity (relative to wild type/unmodified Caspase-9): did not lower basal activity; also recorded: Increased

B5: L329G: modified iCasp9, L329G (protein)
chain: VDGFGDVGALESLRGNADLAYILSMEPCGHCLIINNVNFCRESGLRTRTGSNIDCEKLRRRFSSLHFMVEVKGDLTAKKMVLALLELARQDHGALDCCVVVILSHGCQASHLQFPGAVYGTDGCPVSVEKIVNIFNGTSCPSLGGKPKLFFIQACGGEQKDHGFEVASTSPEDESPGSNPEPDATPFQEGLRTFDQGDAISSLPTPSDIFVSYSTFPGFVSWRDPKSGSWYVETLDDIFEQWAHSEDLQSLLLRVANAVSVKGIYKQMPGCFNFLRKKLFFKTSASRA
- Basal Activity (relative to wild type/unmodified Caspase-9): did not lower basal activity; also recorded: Increased

B6: F326K: modified iCasp9, F326K (protein)
chain: VDGFGDVGALESLRGNADLAYILSMEPCGHCLIINNVNFCRESGLRTRTGSNIDCEKLRRRFSSLHFMVEVKGDLTAKKMVLALLELARQDHGALDCCVVVILSHGCQASHLQFPGAVYGTDGCPVSVEKIVNIFNGTSCPSLGGKPKLFFIQACGGEQKDHGFEVASTSPEDESPGSNPEPDATPFQEGLRTKDQLDAISSLPTPSDIFVSYSTFPGFVSWRDPKSGSWYVETLDDIFEQWAHSEDLQSLLLRVANAVSVKGIYKQMPGCFNFLRKKLFFKTSASRA
- Basal Activity (relative to wild type/unmodified Caspase-9): did not lower basal activity; also recorded: Increased

B7: Q328R: modified iCasp9, Q328R (protein)
chain: VDGFGDVGALESLRGNADLAYILSMEPCGHCLIINNVNFCRESGLRTRTGSNIDCEKLRRRFSSLHFMVEVKGDLTAKKMVLALLELARQDHGALDCCVVVILSHGCQASHLQFPGAVYGTDGCPVSVEKIVNIFNGTSCPSLGGKPKLFFIQACGGEQKDHGFEVASTSPEDESPGSNPEPDATPFQEGLRTFDRLDAISSLPTPSDIFVSYSTFPGFVSWRDPKSGSWYVETLDDIFEQWAHSEDLQSLLLRVANAVSVKGIYKQMPGCFNFLRKKLFFKTSASRA
- Basal Activity (relative to wild type/unmodified Caspase-9): did not lower basal activity; also recorded: Increased

B8: A331K: modified iCasp9, A331K (protein)
chain: VDGFGDVGALESLRGNADLAYILSMEPCGHCLIINNVNFCRESGLRTRTGSNIDCEKLRRRFSSLHFMVEVKGDLTAKKMVLALLELARQDHGALDCCVVVILSHGCQASHLQFPGAVYGTDGCPVSVEKIVNIFNGTSCPSLGGKPKLFFIQACGGEQKDHGFEVASTSPEDESPGSNPEPDATPFQEGLRTFDQLDKISSLPTPSDIFVSYSTFPGFVSWRDPKSGSWYVETLDDIFEQWAHSEDLQSLLLRVANAVSVKGIYKQMPGCFNFLRKKLFFKTSASRA
- Basal Activity (relative to wild type/unmodified Caspase-9): did not lower basal activity; also recorded: Increased

B9: L329K: modified iCasp9, L329K (protein)
chain: VDGFGDVGALESLRGNADLAYILSMEPCGHCLIINNVNFCRESGLRTRTGSNIDCEKLRRRFSSLHFMVEVKGDLTAKKMVLALLELARQDHGALDCCVVVILSHGCQASHLQFPGAVYGTDGCPVSVEKIVNIFNGTSCPSLGGKPKLFFIQACGGEQKDHGFEVASTSPEDESPGSNPEPDATPFQEGLRTFDQKDAISSLPTPSDIFVSYSTFPGFVSWRDPKSGSWYVETLDDIFEQWAHSEDLQSLLLRVANAVSVKGIYKQMPGCFNFLRKKLFFKTSASRA
- Basal Activity (relative to wild type/unmodified Caspase-9): did not lower basal activity; also recorded: Increased

B10: G402Y: modified iCasp9, G402Y (protein, UniProt P55211 1-416, looked up, variant G402Y)
chain: MDEADRRLLRRCRLRLVEELQVDQLWDALLSRELFRPHMIEDIQRAGSGSRRDQARQLIIDLETRGSQALPLFISCLEDTGQDMLASFLRTNRQAAKLSKPTLENLTPVVLRPEIRKPEVLRPETPRPVDIGSGGFGDVGALESLRGNADLAYILSMEPCGHCLIINNVNFCRESGLRTRTGSNIDCEKLRRRFSSLHFMVEVKGDLTAKKMVLALLELAQQDHGALDCCVVVILSHGCQASHLQFPGAVYGTDGCPVSVEKIVNIFNGTSCPSLGGKPKLFFIQACGGEQKDHGFEVASTSPEDESPGSNPEPDATPFQEGLRTFDQLDAISSLPTPSDIFVSYSTFPGFVSWRDPKSGSWYVETLDDIFEQWAHSEDLQSLLLRVANAVSVKGIYKQMPYCFNFLRKKLFFKTS
modifications: FKBP12-F36V fusion (iCasp9), CARD deleted
- Basal Activity (relative to wild type/unmodified Caspase-9): catalytically inactive and dead

B11: D315A: modified iCasp9, D315A (auto-proteolysis site) (protein, UniProt P55211 1-416, looked up, variant D315A)
chain: MDEADRRLLRRCRLRLVEELQVDQLWDALLSRELFRPHMIEDIQRAGSGSRRDQARQLIIDLETRGSQALPLFISCLEDTGQDMLASFLRTNRQAAKLSKPTLENLTPVVLRPEIRKPEVLRPETPRPVDIGSGGFGDVGALESLRGNADLAYILSMEPCGHCLIINNVNFCRESGLRTRTGSNIDCEKLRRRFSSLHFMVEVKGDLTAKKMVLALLELAQQDHGALDCCVVVILSHGCQASHLQFPGAVYGTDGCPVSVEKIVNIFNGTSCPSLGGKPKLFFIQACGGEQKDHGFEVASTSPEDESPGSNPEPAATPFQEGLRTFDQLDAISSLPTPSDIFVSYSTFPGFVSWRDPKSGSWYVETLDDIFEQWAHSEDLQSLLLRVANAVSVKGIYKQMPGCFNFLRKKLFFKTS
modifications: FKBP12-F36V fusion (iCasp9), CARD deleted
- Basal Activity (relative to wild type/unmodified Caspase-9): Decreased
- Basal Activity (relative to wild type/unmodified Caspase-9) (listed as D315): reduced basal activity

B12: C403P: modified iCasp9, C403P (protein, UniProt P55211 1-416, looked up, variant C403P)
chain: MDEADRRLLRRCRLRLVEELQVDQLWDALLSRELFRPHMIEDIQRAGSGSRRDQARQLIIDLETRGSQALPLFISCLEDTGQDMLASFLRTNRQAAKLSKPTLENLTPVVLRPEIRKPEVLRPETPRPVDIGSGGFGDVGALESLRGNADLAYILSMEPCGHCLIINNVNFCRESGLRTRTGSNIDCEKLRRRFSSLHFMVEVKGDLTAKKMVLALLELAQQDHGALDCCVVVILSHGCQASHLQFPGAVYGTDGCPVSVEKIVNIFNGTSCPSLGGKPKLFFIQACGGEQKDHGFEVASTSPEDESPGSNPEPDATPFQEGLRTFDQLDAISSLPTPSDIFVSYSTFPGFVSWRDPKSGSWYVETLDDIFEQWAHSEDLQSLLLRVANAVSVKGIYKQMPGPFNFLRKKLFFKTS
modifications: FKBP12-F36V fusion (iCasp9), CARD deleted
- Basal Activity (relative to wild type/unmodified Caspase-9): catalytically inactive and dead

Reference: US20230065562A1, “DUAL CONTROLS FOR THERAPEUTIC CELL ACTIVATION OR ELIMINATION” (Bellicum Pharmaceuticals, Inc., priority 2015, published 2023)
